Laboratory results published in the supplement of paper PMC9170038.

System: MS2 coat protein
Assay: apparent KD of MS2 coat protein; designed switch direction (-1 OFF switch, 1 ON switch): -1; higher = weaker reporter binding
Method in brief: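 Designed RNA switches were transcribed on Illumina chips by stalled E. coli RNA polymerase and titrated with SNAP-549-labelled MS2 coat protein from 0.7 or 1.5 nM, doubling to 3 µM. Step length ran from 0.8–1.5 h at the lowest concentration to 10–20 min at the highest. The apparent KD is the median over clusters for each design, from curve-fitted normalised cluster fluorescence.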

[1] = Eterna round: R95, input ligand: FMN 200 uM
[2] = Eterna round: R95, input ligand: microRNA oligo, concentration not stated
[3] = Eterna round: R95, input ligand: none
[4] = input ligand: microRNA oligo, concentration not stated

Sequence | apparent KD of MS2 coat protein [1] | apparent KD of MS2 coat protein [2] | apparent KD of MS2 coat protein [3] | apparent KD of MS2 coat protein (input ligand: FMN 200 uM) | apparent KD of MS2 coat protein [4] | apparent KD of MS2 coat protein (input ligand: none)
AAGUACCGUCACGAUAGUGAUGGUACAACAAGCAGUGAUACAUGAGGAUCACCCAUGUCCUCAAUUGCUCGUCUUAU [Sensor 3 - 75] (puzzle: Sensor v3, turn-off variant 2) | 133 nM | 307 nM | 157 nM |  |  | 
AAGUACCGUCACGAUAGUGAUGGUACAACAAGUAGUGAAACAUGAGGAUCACCCAUGUCCUCUUUUGCUCGUCUUAU [Sensor 3 - 88] (puzzle: Sensor v3, turn-off variant 2) | 931 nM | 54 nM | 969 nM |  |  | 
AAGUACCGUCACGAUAGUGAUGGUACAACAAGUGAAUGUACAUGAGGAUCACCCAUGUCCUCUUUUGCUCGUCUUAU [Sensor 3 - 92] (puzzle: Sensor v3, turn-off variant 2) | 151 nM | 30.9 nM | 184 nM |  |  | 
AAGUACUACAAGCUUAGGGACAUGAGGAUCACCCAUGUUCGUCUUAUUGAUCUAGGUACGCUGACGUACCUAGAUCU [Mat - Sensor v3 - turn-off var 1 - JL Mod - D9] (puzzle: Sensor v3, turn-off variant 1) | 15.2 nM | 58.6 nM | 13.2 nM |  |  | 
AAGUAGAGCUAAGGAUAUAUAGAGUAGUAGAAGAUAGAAGGUAGAAGUAGAAGAUGAUGAUGAAGAUGAAGUAGAUGAAGUAGA [TEST1] (Eterna round: R96, puzzle: Exclusion NG 1) |  |  |  | 24.7 nM | 209 nM | 19.9 nM
AAGUAGCAUGCAGGAUAUGGUAAUCGAACGUUACCAGAAGGGCAUGAGGAUCACCCAUGUUCUCAUUUGUAAGAACAGAUGUCU [Ex NG1 #7] (Eterna round: R96, puzzle: Exclusion NG 1) |  |  |  | 251 nM | 110 nM | 94.4 nM
AAGUAUAGAGGAUAUAGUAGGUACAACAUGAGGAUCACCCAUGUUCUUCAUAACGUAUUUCUAGAAGGCUGAUAAA [EX-5 Malc#27] (Eterna round: R96, puzzle: Exclusion 5) |  |  |  | 356 nM | 135 nM | 126 nM
AAGUAUAGAGGAUAUAGUAGGUACAACAUGAGGAUCACCCAUGUUCUUCAUAACGUAUUUCUAGAAGGCUGAUAAA [EX-5 Malc#27] (puzzle: Exclusion 5) |  | 174 nM |  |  |  | 
AAGUAUAGAGGAUAUAGUAGUUACAACAUGAGGAUCACCCAUGUUCUUCAUAACGUAGAUCUAGAAGGCUGAUAAA [EX-5 Malc#29] (puzzle: Exclusion 5) | 145 nM | 114 nM | 140 nM |  |  | 
AAGUCACAGGGAGGAUAUGUGAAAGGAAGUGUAACAGAAGGCCCAACGUAGGGCGAGACAUGAGGAUCACCCAUGUAUAAAAGA [PowerStrip EXNG 1.16] (Eterna round: R96, puzzle: Exclusion NG 1) |  |  |  | 28.9 nM | 20.8 nM | 25.9 nM
AAGUCUGGUGUAAGGAUAUUGUUAGACUUGGUGAGCAAGAAGGUACAUGAGGAUCACCCAUGUGGGAUACUAGC [Eternabot (Original) Solution 41] (Eterna round: R97, puzzle: Brourd's mod of Exclusion 4) |  |  |  | 40.5 nM |  | 40 nM
AAUAACAAGCAGAUCCUAAACAUGAGGAUCACCCAUGUGCUCGUCUUGUUGUACUAUCACUCGAAAGUGAUAGUACA (Eterna round: R97, puzzle: Sensor, turn-off variant 1) |  |  |  | 90.1 nM |  | 104 nM
AAUAACAAGCCGAUCCUAAACAUGAGGAUCACCCAUGUGCUCGUCUUGUAAAGUACUAUCACGAAAGUGAUAGUACA (Eterna round: R96, puzzle: Sensor v3, turn-off variant 1) |  |  |  | 18.1 nM | 220 nM | 19.3 nM
AAUAACAAGCCGAUCCUAAACAUGAGGAUCACCCAUGUGCUCGUCUUGUAAAGUACUAUCACGAAAGUGAUAGUACA (Eterna round: R97, puzzle: Sensor, turn-off variant 1) |  |  |  | 24.5 nM |  | 18 nM
AAUAACAAGCCGAUCCUAAACAUGAGGAUCACCCAUGUGCUCGUCUUGUAAAGUACUAUCACGAAAGUGAUAGUACA (puzzle: Sensor v3, turn-off variant 1) | 16.3 nM | 345 nM | 14.5 nM |  |  | 
AAUAACAAGCCGAUCCUCUACAUGAGGAUCACCCAUGUGUUCGUCUUGUAAAGUACUAUCACGAAAGUGAUAGUACA (Eterna round: R97, puzzle: Sensor, turn-off variant 1) |  |  |  | 209 nM |  | 244 nM

Sequence | apparent KD of MS2 coat protein [1] | apparent KD of MS2 coat protein [2] | apparent KD of MS2 coat protein [3] | apparent KD of MS2 coat protein (input ligand: FMN 200 uM) | apparent KD of MS2 coat protein [4] | apparent KD of MS2 coat protein (input ligand: none)
AAUAACAAGUUGAUCCUACACAUGAGGAUCACCCAUGUGCUCGUCUUGUCAAGUACUAUCACGAAAGUGUUAGUUCA [Mod-Hyphema] (Eterna round: R97, puzzle: Sensor, turn-off variant 1) |  |  |  | 74.7 nM |  | 263 nM
AAUAACAGAGGAUAUACUAUAAUAUGAAUAAAAUAAAUAAAACAUGAGGAUCACCCAUGUAGAAGGCUGAAUAA [JMF's Not so obvious solution 10] (puzzle: Exclusion 2) | 17.1 nM | 20 nM | 21.1 nM |  |  | 
AAUAACAGAGGAUAUACUAUUUUAUGUAUUUAUUAUUUUAAACAUGAGGAUCACCCAUGUAGAAGGCUGAGUAA [JMF 27] (puzzle: Exclusion 2) |  | 22.2 nM |  |  |  | 
AAUAACAGAGGAUAUACUAUUUUAUGUGUUUAUUGUUUUAAACAUGAGGAUCACCCAUGUAGAAGGCUGAUUAA [JMF 45] (puzzle: Exclusion 2) |  | 61.9 nM |  |  |  | 
AAUAACAGAGGAUAUACUAUUUUAUGUGUUUAUUGUUUUAAACAUGAGGAUCACCCAUGUAGAAGGCUGAUUGA [JMF 73] (puzzle: Exclusion 2) |  | 65.5 nM |  |  |  | 
AAUAACAGAGGAUAUACUAUUUUAUGUGUUUAUUGUUUUGAACAUGAGGAUCACCCAUGUAGAAGGCUGAUUAA [JMF 51] (puzzle: Exclusion 2) |  | 35.3 nM |  |  |  | 
AAUAACAGAGGAUAUACUGUUUUAUGUGUUUGUUAUUUUGAACAUGAGGAUCACCCAUGUAGAAGGCUGAUUAA [JMF 50] (puzzle: Exclusion 2) |  | 37.4 nM |  |  |  | 
AAUAACAGAGGAUAUACUGUUUUAUGUGUUUGUUGUUUUGAACAUGAGGAUCACCCAUGUAGAAGGCUGAUUGA [JMF 79] (puzzle: Exclusion 2) |  | 38.7 nM |  |  |  | 
AAUAAUACAGGAUAUACAGUUUAUUACAUGAGGAUCACCCAUGUUCUUCAAUGUAUAUAAGUAGAAGGGUAAGGAA [EX-5 Malc#1] (puzzle: Exclusion 5) | 50.9 nM | 25.1 nM | 24.3 nM |  |  | 
AAUAAUAGCGAGGAUAUCGUAUCGGAAACGAUACGAGAAGGCGUAACAUGAGGAUCACCCAUGUUCCUCAAUAA [Fiskers Ex 6 - 3] (Eterna round: R96, puzzle: Exclusion 6) |  |  |  | 354 nM | 39.8 nM | 41 nM
AAUAAUAGCGAGGAUAUCGUAUCGGAAACGAUACGAGAAGGCGUAACAUGAGGAUCACCCAUGUUCCUCAAUAA [Fiskers Ex 6 - 3] (puzzle: Exclusion 6) |  | 39.7 nM |  |  |  | 
AAUAAUCGGGCCUUCCUAAUACAUGAGGAUCACCCAUGUCUCGAGGAUAUACCAACGCACGGUCCGUAGAAGGCGAGACCACAC [Vesoonso] (Eterna round: R96, puzzle: Exclusion NG 3) |  |  |  | 24.2 nM | 13.2 nM | 21.9 nM
AAUACAAGCUAUUGAUCCCACAUGAGGAUCACCCAUGUGCCUGGCCGUGAGACCAGGUUUACAAUAGCUCGUCUUAU [Sensor-V1 #47] (Eterna round: R97, puzzle: Sensor, turn-off variant 1) |  |  |  | 23.5 nM |  | 23.5 nM
AAUACACAUGAGGAUCACCCAUGUUAGGAUAUUCGCGGGAAAGCUGUCAAAACGCCGAGGAGAAGGAACAGGAA [Excls1-X] (puzzle: Exclusion 1) | 40 nM | 33.7 nM | 45.7 nM |  |  | 
AAUAGCAAGUAAGAUCCUAACAUGAGGAUCACCCAUGUGCUCGUCUUGUAAAGUACUAUCACGAAAGUGAUAGUACA [Sensor 3, v1 - 50] (puzzle: Sensor v3, turn-off variant 1) | 108 nM | 69.4 nM | 146 nM |  |  | 
AAUCAUAGGUAAGGAUAUGAAGAUCUGGUGGUGACAUGAGGAUCACCCAUGUGAAAACGAUGAGAUCAGAAGGUACAAUAUGAA [AK ExNG2-4] (Eterna round: R96, puzzle: Exclusion NG 2) |  |  |  | 108 nM | 18 nM | 88.3 nM
